Measured values reported in PMC4223078.
Positions count from the first letter of the chain named.

Tests used:
Assay in all cases: EMSA
Details in all cases: 10 nM DNA in 15 mM HEPES pH 7.9, 40 mM KCl, 1 mM EDTA, 0.5% DTT, 5% glycerol, 30 min (incubation temperature not stated); 6% native PAGE in TAE at 4 C, SYBR …
[1] = target: T1, H-NS (6His) (Salmonella enterica serovar Typhimurium 14028s?) (UniProt A0A0F6B244)
T1 sequence: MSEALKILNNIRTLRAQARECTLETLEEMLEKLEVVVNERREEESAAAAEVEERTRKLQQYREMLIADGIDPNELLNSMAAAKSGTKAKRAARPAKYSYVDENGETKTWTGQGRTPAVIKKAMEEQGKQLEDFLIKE

[2] = target: T2, StpA A77D A77D (Salmonella enterica serovar Typhimurium 14028s) (UniProt A0A0F6B5K2)
T2 sequence: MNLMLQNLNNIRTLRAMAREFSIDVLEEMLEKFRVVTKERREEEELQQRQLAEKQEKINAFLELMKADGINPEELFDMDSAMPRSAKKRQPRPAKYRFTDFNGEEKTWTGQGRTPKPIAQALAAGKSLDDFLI

[3] = target: T3, StpA M4T M4T (Salmonella enterica serovar Typhimurium 14028s) (UniProt A0A0F6B5K2)
T3 sequence: T2 sequence with M4T, D77A

[4] = target: T4, StpA T37I T37I (Salmonella enterica serovar Typhimurium 14028s) (UniProt A0A0F6B5K2)
T4 sequence: T2 sequence with T37I, D77A

[5] = target: T5, StpA WT (Salmonella enterica serovar Typhimurium 14028s) (UniProt A0A0F6B5K2)
T5 sequence: T2 sequence with D77A

Measured: binding

CTCTCTCTGCACCAGGATATACGGCAGCGTCCATTCGATAATCACAGTTAGTTATAACAATATTATTACCAACATGTCAGTTATTTAAAGCACAGGCATAAGCTAAATAATCAAATGTTAAAAACATATAAACCCGAGCCCGTAGAATATGACATTAAGCTCATAATAAAAGCTCAACCTGACCGTTAGTACTAACAGCAGAATTACTGAAACAGTAGATTCTATCCTAACGACTTGTATTAGTTATTATAACTTTTCACCCTGTAAGAGAATACACTATTATCATGCC (double strand) [hilA 289 bp fragment]
binds: [1] | [2] | [3] | [4] | [5]
